Measured values reported in patent US7163815B2, “Methods and compositions for NAD(P)(H) oxidases” (Georgia Tech Research Corporation, priority 2002, dated 2007).
Entries after “also recorded” stand apart in the source; their conditions may differ.

Columns and labels:
[1] = test system: L. brevis (R)-ADH, G37D mutant; settings: in comparison with the wildtype for NADP^+; cited from earlier work
[2] = test system: NC(=O)C1=CN([C@@H]2O[C@H](COP(=O)(O)OP(=O)(O)OC[C@H]3O[C@@H](n4cnc5c(N)ncnc54)[C@H](O)[C@@H]3O)[C@@H](O)[C@H]2O)C=CC1; test: Kinetics of cofactor substrates, BNOX (change of absorbance at 340 nm); type: biochemical, Borrelia burgdorferi; settings: other: BNOX, pH 7.0, 30° C., HEPES buffer, air-saturated solution, 40% ammonium sulfate cut for BNOXK6
Procedure: (§1) The kinetic analysis was performed on ammonium sulfate fractions from both the sfnox and bnox strains in 50 mM HEPES buffer pH 7.0 at 30° C. The initial enzyme fractions were diluted in 25 mM HEPES pH 7.0 at 30° C.+25% glycerol+5 mM DTT to approximately −0.05 A340 nm/min and retained on ice during analysis. Conversion of NAD(P)H was followed by change of absorbance at 340 nm in a Jasco V-530 spectrophotometer. 3 mL methylacrylate disposable cuvettes were used for all experiments and all runs were performed in triplicate at 30° C. Reactions with NADH were started by adding 3 μL of enzyme preparation, 9 μL for NADPH, to the cuvette and mixing by inversion with parafilm three times. Varying concentrations of NAD(P)H substrate were made my preparing 100 mL of a 300 μM solution in a volumetric flask. Dilutions of this solution were then made to provide the differing substrate concentrations for the kinetic profile.
(§2) Investigation of kinetic parameters with NADH and NADPH cofactors as substrates was performed with the supernatant of the 45% ammonium sulfate cut (40% for BNOXK6) in air-saturated solution at 30° C. and pH 7.0 in 0.1 M HEPES buffer. […] Chi values and error bars reveal high accuracy with <10% error in most cases.

[3] = biological target: Borrelia burgdorferi NADH oxidase BNOX (BNOXK6; SEQ ID NOs 8, 10 and 12) (Borreliella burgdorferi, UniProt O51670, E220G/N174S); test: as above; type: biochemical; settings: pH 7.0, 30° C., comparable degree of purity to SFNOX
Procedure: as §1, §2

[4] = Nox activity assay (NADH oxidation at 340 nm); type: biochemical; settings: overexpressed in E. coli
Procedure: Nox activity assay: Cell-free extracts of the recombinant sfnox and bnox E. coli strains were prepared using ultrasonication described above in 0.1 M TEA pH 7.5+5 mM DTT or β-mercaptoethanol. Nox activities were assayed at 30° C. in a total volume of 1 mL at 340 nm using the following conditions: in 0.1 M TEA pH 7.5 a final concentration of 0.2 mM NADH was dissolved and 10 μl enzyme solution was added. Enzyme reaction was followed for 1 min, activity was calculated using an extinction coefficient ε of NADH of […].

[5] = Kinetics of cofactor substrates, NADPH; type: biochemical; settings: pH 7.0, 30° C.
Procedure: as §1, §2

[6] = Hydrogen peroxide assay (Amplex Red / resorufin fluorescence); type: biochemical; settings: upon conversion of 300 μM NADH
Procedure: With its detection limit of 100 nM, the test based on 9-acetyl-resorufin (“Amplex Red”) is much more sensitive than the other assays mentioned. Horseradish peroxidase (HRP)-catalyzed oxidation of 9-acetyl resorufin (“Amplex Red”) to fluorescent resorufin was the assay. Amplex Red reacts with H2O2 according to a strict 1:1 stoichiometry. The resorufin assay (λmax: 587 nm (emission), ε=54,000 L(mol-cm)^−1) with its extremely low detection limit of 100 nM resorufin product is much more sensitive than other assays, such as ABTS or o-dianisidine..
For the sensitive assay of putative hydrogen peroxide formation during the reaction of NADH oxidase the horseradish peroxidase-catalyzed oxidation of 9-acetyl resorufin was employed. The Amplex Red hydrogen peroxide assay kit (A-22188) from molecular probes was utilized for these assays. Following the protocols outlined in the kit instructions, a standard curve of H2O2 was prepared in the reaction buffer (50 mM sodium phosphate buffer pH 7.4) from the peroxide stock. The prepared concentrations were 20, 10, 5, and 2.5 μM H2O2 and 0 as a control. A working solution of 100 μM Amplex Red reagent and 0.2 U/ml horseradish peroxidase (HRP) was prepared in the reaction buffer as per kit instructions. As NADH and other reducing reagents are known to interfere with the amplex red assay, the NADH oxidase enzymes were allowed to react with the substrate immediately prior to the Amplex Red analysis. Reaction buffer from the kit was utilized in running enzyme test with 300 μM NADH as well as the controls without NADH. The enzyme conversions were performed by adding 3 μl of enzyme prep to 3 ml of reaction buffer with 300 μM NADH, mixing, and following the conversion until completion by absorbance at 340 nm. 50 μl of the final reaction mixture and standard curve solutions were added to each well in a 96 well fluorescence plate (costar, black, pp). Five replicates were made per sample and standard curve point. […] Fluorescence readings were performed in a BMG FLUOstar Galaxy micro plate reader with 544ex/590em filter settings.

Activity-pH profile = type: biochemical
Procedure: With the supernatant of the 45% ammonium sulfate cut, an activity—pH profile was measured for SFNOX (FIG. 4). The pH optimum of activity was found at pH 5.2. Below pH 5, activity decreased markedly and reached zero at pH 4.5. Rates at pH 4.5 to 5.2 are reported as net rates, with the chemical decomposition rate at low pH subtracted. […] The sharp activity decline between pH 5.2 and 6.0 coincides with the enzyme's pI, calculated to be pH 5.4.
The pH profile was performed on ammonium sulfate fractions from the sfnoxK2. 100 mM buffer solutions at 30° C. and 200 μM NADH were used for activity analysis as monitored by absorbance at 340 nm. All samples were tested in triplicate in 3 mL methylacrylate disposable cuvettes. The following buffers were utilized within the buffering range of 1 pH unit from their pKa: acetate, N-methylpiperazine, MES (2-[N-morpholino]ethanesulfonic acid hydrate), and bis-tris-propane. Sodium hydroxide or hydrochloric acid were used in preparation of the respective buffers.

For `NC(=O)c1ccc[n+]([C@@H]2O[C@H](COP(=O)([O-])OP(=O)(O)OC[C@H]3O[C@@H](n4cnc5c(N)ncnc54)[C@H](O)[C@@H]3O)[C@@H](O)[C@H]2O)c1` [NAD^+], the “KM-value for NAD^+” value [1] is listed as “very high”.

In the case of “Borrelia burgdorferi NADH oxidase BNOX (BNOXK6; SEQ ID NOs 8, 10 and 12) (Borreliella burgdorferi B31; E220G/N174S)”, the Km [2] is reported as 22.0 µM.

Molecule `NC(=O)C1=CN([C@@H]2O[C@H](COP(=O)(O)OP(=O)(O)OC[C@H]3O[C@@H](n4cnc5c(N)ncnc54)[C@H](O)[C@@H]3O)[C@@H](O)[C@H]2O)C=CC1` [NADH] has a vmax [3] of 2.03 U/mg.

B1: SFNOXK2: sequenced SFNOX clone with alanine to valine change at position 30 (A30V), SEQ ID 4 (protein)
chain: MKVIVVGCTHAGTFAVKQTIADHPDADVTVYEMNDNISFLSCGIALYLGKEIKNNDPRGLFYSSPEELSNLGANVQMRHQVTNVDPETKTIKVKDLITNEEKTEAYDKLIMTTGSKPTVPPIPGIDSSRVYLCKNYNDAKKLFEEAPKAKTITIIGSGYIGAELAEAYSNQNYNVNLIDGHERVLYKYFDKEFTDILAKDYEAHGVNLVLGSKVAAFEEVDDEIITKTLDGKEIKSDIAILCIGFRPNTELLKGKVAMLDNGAIITDEYMHSSNRDIFAAGDSAAVHYNPTNSNAYIPLATNAVRQGRLVGLNLTEDKVKDMGTQSSSGLKLYGRTYVSTGINTALAKANNLKVSEVIIADNYRPEFMLSTDEVLMSLVYDPKTRVILGGALSSMHDVSQSANVLSVCIQNKNTIDDLAMVDMLFQPQFDRPFNYLNILGQAAQAQADKAHK
With B1 the “activity of the overexpressed constructs” value [4] was “comparable activity”.

B2: SFNOXK6: sequenced SFNOX clone with A30V and lysine to arginine at position 102 (K102R), SEQ ID NO 6 (protein)
chain: MKVIVVGCTHAGTFAVKQTIADHPDADVTVYEMNDNISFLSCGIALYLGKEIKNNDPRGLFYSSPEELSNLGANVQMRHQVTNVDPETKTIKVKDLITNEERTEAYDKLIMTTGSKPTVPPIPGIDSSRVYLCKNYNDAKKLFEEAPKAKTITIIGSGYIGAELAEAYSNQNYNVNLIDGHERVLYKYFDKEFTDILAKDYEAHGVNLVLGSKVAAFEEVDDEIITKTLDGKEIKSDIAILCIGFRPNTGLLKGKVAMLDNGAIITDEYMHSSNRDIFAAGDSAAVHYNPTNSNAYIPLATNAVRQGRLVGLNLTEDKVKDMGTQSSSGLKLYGRTYVSTGINTALAKANNLKVSEVIIADNYRPEFMLSTDEVLMSLVYDPKTRVILGGALSSMHDVSQSANVLSVCIQNKNTIDDLAMVDMLFQPQFDRPFNYLNILGQAAQAQADKAHK
With B2 the “activity of the overexpressed constructs” value [4] was “comparable activity”.

B3: SFNOX: NAD(P)H oxidase isolated from Lactobacillus sanfranciscensis, SEQ ID NO 2; oxidizes NADH and NADPH, reduces oxygen to water (protein)
chain: MKVIVVGCTHAGTFAVKQTIADHPDADVTAYEMNDNISFLSCGIALYLGKEIKNNDPRGLFYSSPEELSNLGANVQMRHQVTNVDPETKTIKVKDLITNEEKTEAYDKLIMTTGSKPTVPPIPGIDSSRVYLCKNYNDAKKLFEEAPKAKTITIIGSGYIGAELAEAYSNQNYNVNLIDGHERVLYKYFDKEFTDILAKDYEAHGVNLVLGSKVAAFEEVDDEIITKTLDGKEIKSDIAILCIGFRPNTELLKGKVAMLDNGAIITDEYMHSSNRDIFAAGDSAAVHYNPTNSNAYIPLATNAVRQGRLVGLNLTEDKVKDMGTQSSSGLKLYGRTYVSTGINTALAKANNLKVSEVIIADNYRPEFMLSTDEVLMSLVYDPKTRVILGGALSSMHDVSQSANVLSVCIQNKNTIDDLAMVDMLFQPQFDRPFNYLNILGQAAQAQADKAHK
For B3, the “acceptance of NADPH as a substrate” value [5] was “accept NADPH as a substrate with good reactivity”, the “activity with NADPH relative to activity towards NADH” value ([5]; ratio of vmax) was “about 30%” and the H2O2 yield [6] was 0.2%. For the same molecule, the “resorufin above background (equal concentration of H2O2 formed)” value [6] was 0.6 µM, the “pH of the minimum of the bimodal activity-pH curve” value (Activity-pH profile; 200 μM NADH, 30° C.) was ~5.5 and the “pH optimum of activity” value (Activity-pH profile; 200 μM NADH, 30° C., supernatant of 45% ammonium sulfate cut) was 5.2. The “activity at pH 4.5” value (Activity-pH profile; pH 4.5, net rate) was “zero” and the “activity at pH 5.5” value (Activity-pH profile; pH 5.5) was “instantaneously lose activity”.

B4: BNOX: NADH oxidase from Borrelia burgdorferi, SEQ ID NO 8; reacts with NADH only (protein)
chain: MMKIIIIGGTSAGTSAAAKANRLNKKLDITIYEKTNIVSFGTCGLPYFVGGFFDNPNTMISRTQEEFEKTGISVKTNHEVIKVDAKNNTIVIKNQKTGTIFNNTYDQLMIATGAKPIIPPINNINLENFHTLKNLEDGQKIKKLMDREEIKNIVIIGGGYIGIEMVEAAKNKRKNVRLIQLDKHILIDSFDEEIVTIMEEELTKKGVNLHTNEFVKSLIGEKKAEGVVTNKNTYQADAVILATGIKPDTEFLENQLKTTKNGAIIVNEYGETSIKNIFSAGDCATIYNIVSKKNEYIPLATTANKLGRIVGENLAGNHTAFKGTLGSASIKILSLEAARTGLTEKDAKKLQIKYKTIFVKDKNHTNYYPGQEDLYIKLIYEENTKIILGAQAIGKNGAVIRIHALSIAIYSKLTTKELGMMDFSYSPPFSRTWDILNIAGNAAK
In the case of B4, the “acceptance of NADPH as a substrate” value [5] is reported as “does not accept NADPH as a substrate; also recorded: only accepts NADH” and the “resorufin above background (equal concentration of H2O2 formed)” value [6] is reported as “could not detect any resorufin above background”.
